Reference: article PMC3105389
Like-named read-outs stand apart in the source and are kept apart here.

Assays:
[1] = target: T1, MobMN199 (MobM relaxase domain) (Streptococcus plasmid pMV158 (plasmid …, UniProt P13925 1-199)); test: competition
T1 sequence: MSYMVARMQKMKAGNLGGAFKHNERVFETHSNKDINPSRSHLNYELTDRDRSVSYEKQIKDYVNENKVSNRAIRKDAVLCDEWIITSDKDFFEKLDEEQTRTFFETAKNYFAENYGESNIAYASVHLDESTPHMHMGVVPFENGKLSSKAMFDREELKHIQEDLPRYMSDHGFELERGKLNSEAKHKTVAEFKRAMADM

[2] = target: T1, MobMN199 (MobM relaxase domain); test: competition; remark: listed apart in the source
[3] = target: T1, MobMN199 (MobM relaxase domain); test: EMSA
[4] = target: T1, MobMN199 (MobM relaxase domain); test: competition; remark: listed apart in the source

ACTTTATGAATATAAAGT (ssDNA) [IR1 18-mer]: no binding [1].

GAATATAAAGT (ssDNA) [IR1-R 11-mer]: no binding [2].

With GCACACACTTTATGAATATAAAGTATAGTGTGTTATACTTTA (ssDNA) [ORIT 42-mer] the Kd [3] was 58 ± 6 nM.

GCACACACTTTATGA (ssDNA) [IR3-L 15-mer]: no binding [2].

ACTTTATGAATATAAAGTATAGTGTG (ssDNA) [IR1+8 26-mer]: binds [4].

With GCACACACTTTATGAATATAAAGTATAGTGTG (ssDNA) [IR3 32-mer] the Kd [3] was 60 ± 7 nM.

TAAAGTATAGTGTGTTATACTTTA (ssDNA) [IR2 24-mer]: no binding [2].

GTATAGTGTG (ssDNA) [10-NIC 10-mer]: no binding [1].
